Measurements taken from the supplement of paper PMC9170038.

Test system: MS2 coat protein
Assay: apparent KD of MS2 coat protein; higher = weaker reporter binding
Settings: Eterna round: R107
Outline: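 Illumina sequencing clusters were used for on-chip transcription of designed RNA switches. Titration with SNAP-549-labelled MS2 coat protein followed, in twofold steps from 0.7 or 1.5 nM to 3 µM in 100 mM Tris-HCl pH 7.5, 80 mM KCl, 4 mM MgCl2, without or with constant ligand. Apparent KD is each design's median of fits to normalised cluster binding curves.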

[1] = input ligand: theophylline 20 uM
[2] = input ligand: theophylline 2 mM
[3] = input ligand: tryptophan 2.4 mM

Sequence	apparent KD of MS2 coat protein (input ligand: arginine 13.2 mM) [nM]	apparent KD of MS2 coat protein (input ligand: none) [nM]	apparent KD of MS2 coat protein [1] [nM]	apparent KD of MS2 coat protein [2] [nM]	apparent KD of MS2 coat protein [3] [nM]
UGGUACAUGAGGAUCACCCAUGUUCCAGAUACCAGUGUCCCGCUGCACCCUUGGCAGCUGGUGGUACAUGAGGAUCACCCAUGUG [Exclusion Theophylline A GF11]	24.3	34.1	42.7	56.4	39
CAACUGCUUGAGCUUACUUAUUGGACUUCCCGAGGACCGGUACGGCCGCCACUCGCAGGGACACAUGAGGAUCACCCAUGUAAAG [theeternabot_exclusion_MS2_Trp_A_42]	17.3	–	21.1	19.6	–
GUCCUAGCGAGCGCUCGCUAGGACGCGGAUACCAGCGAGGUCCAUCGCCCUUGGCAGCCGAACAUGAGGAUCACCCAUGUCGGUA [#1 Same State - Theophylline A Attempt #16 (HarryS)]	8.3	11.6	13.2	13.4	9.97
UCGCCCGGGUCGGCCGCCACUGAGGUGAUGUGACAUGAGGAUCACCCAUGUUGUCAUGUGGCACAUAGGACCGGGACCCGGGCGA [Exclusion - Tryptophan B Attempt #3 (HarryS)]	16.4	26.3	41	16.8	22.5
UGGCGAGAAGGAAGGAGCGUCAGCUGAGUUACAUGAGGAUCACCCAUGUUUUACAUUGUGUGACAGGUAGGUCGCCUUCUGCCCU [SS-ArgB20]	15.7	14	18.8	16.9	13.5
AAGCGGGCGACGGCCGCCACUUGCCUGUAAUUAGAGAAGGCACAUGAGGAUCACCCAUGUCCCGCAAGGACCGGGUUGCCUCACU [Ditiraorce]	93.6	–	484	580	–
UGCCCUGCGAGCGCUCGCAGGGCAGCGGAUACCAGCGAGGUCCAUCGCCCUUGGCAGCCGAACAUGAGGAUCACCCAUGUCGGUG [Same State - Theophylline A Attempt #9 (HarryS)]	11.4	14.1	18.9	144	13.2
GGUCUCUGGAGCGAUACCAGCUUAAAUGUACUGGCCAGGUACAUGAGGAUCACCCAUGUAAGCCCUUGGCAGCGCUCCAGAGACC [#1 Exclusion - Theophylline B Attempt #13 (HarryS)]	12.3	13.9	13.8	39.2	13.5
AUAACAUGAGGAUCACCCAUGUAAGCUGAAGGAGCGGACGAAAGUCCAGGUAGGUCGCAGCGCUCCUUCACCUCAUGAGAAGGAG [(M1)-(M2)-(Arg1)-(Arg2)-(A)'-(M)'-(A)''_Design2]	23.4	23	31.4	25.3	22.4
AAACAUGAGGAUCACCCAUGUAAUUCAGAAGGAGCGUCAUUAUUGACAGGUAGGUCGCUGAUAAAAUUUCUAUACAUCAUGUAUA [JR_SSArginiA_Sub013]	11.9	12.4	15.7	13	13.3
AUACAUGAGGAUCACCCAUGUGAUGGCCGGCGAGGACCGGUACGGCCGCCACUCGUGAUCCGUCCCGAGAGCAAAGCUCUCGACA [Raatala]	4.9	53.7	436	1080	50.3
GGGCGCGUGGACCGGCGUGCUCCGCUCCGUCGAGGACCGGUACGGCCGCCACUCGACAUGAGGAUCACCCAUGUGCGAGCUCGCG [#1 Exclusion - Tryptophan A Attempt #15 (HarryS)]	16.2	19.3	39.8	32.1	191
AUAUUUAACGGAAGGAGCGCGGAUAAUAAAGUGGGUAAACAUGAGGAUCACCCAUGUAAACCGCAGGUAGGUCGCCGAUAUAUAU [AstrosEXyARgB#7]	26.4	63.6	54.8	51.2	41.4
AAAUAAAUACAUGAGGAUCACCCAUGUGAAGGAGCGCCCGUUAGGGCAGGUAGGUCGCACAUGAACUCCAAAGUGCAAAAGCACA [ArgEX 17 #OpenEnded]	35.7	21.5	29.7	27.4	25.4
ACAUGAGGAUCACCCAUGUGAAGGCACGAUACCAGCUGAUCCCGUGGCCCUUGGCAGCGUCCGGUUUGGUCCGGCGGAUGGGACG [vvamullin]	13.1	18.8	33.6	21.9	23
GUUGUAUACUCGGCCGCCACUGAGAGAGUCAUGUGAACAUGAGGAUCACCCAUGUAAUAUAUAUACAGGACCGGGAGUGUGGUAA [4.H]	14.5	16.8	16.5	14.4	15.8
ACAUGAGGAUCACCCAUGUAUGACUAUCCUCGAGGACCGGUACGGCCGCCACUCGAACGAGUGGCUCGCGAGUGCGCACUCGCGG [5'end-1]	12.4	11.4	15.6	12.9	11.6
